# B1: SEQ ID NO: 123: Pseudomonas sp. 10-1B aminotransferase (protein)
# chain: MENSMSLNDLQQRDIDNLLHPYTNHHLHQSQGPHVITGGDGIYVTDDQGNRYIEGLAGLFCASLGFSEPRLAQAAFEQLQRMPFYHAFAHKSTQPGIELAERLLAMAPPSMSKVFFANSGSEANDTAVKLIWYYHNAIGQPQKKKIIARQRGYHGVTVASASLTGLPNNHRDFDLPIANILHTDCPHYYRYGLPGESEAAFVDRCVANLEALILHEGADTIAAFFAEPVMVSGGVILPPQGYFAKVQALLRKYDILFVVDEVICGFARTGNMFGWQTYDLQPDMISLAKQLSAAYMPISALLVNDKIDQALKAQSEKIGSFSHGFTYGGHPVAAAVALEAQKIYQERDIVGHVRRVAPRFQAGIRRLGEHPLIGEARGVGLVAGLEFVRNKQTRETFAPEQSAAAYAGRRAQAHGVITRGLGDTLSLCPALIIDEEQIDDLIVRIERALDDTLAWAREQGLVDA
# modifications: Pseudomonas sp. 10-1B
# notes: Pseudomonas sp; 10-1B aminotransferase
# B2: SEQ ID NO: 117: Thermomicrobium roseum aminotransferase (protein)
# chain: MTEVAAVHPEPRTAPDFEQEALKHVWIHSAEWIRLAEERGFRVFERAYGSTLVDVYGREFIDGLSGLWVVNAGHGRKEIAEAMAEQASKLAYVSSANHTTVPTVRLAHELALRLPGDLNRVFFCSGGSEAVESAIKIAKQVQAMRGFPKRYKIIARRGSYHGMTYGAMSLTQSRNEKFFGPFMYGVYYVPSPNRYRNDFGLEGEEGDLMCANYVEQEILYQDPETVAAVIGEPISTSNGVHVPSPKYWQRLREICDKYGVLLIMDEVINGFGRTGKLFAAEHFGVVPDLMTMAKGITSGYAPMGAVAVRDSVFQIFQEQKEVPLGHLLTFGGHAVAAAAALKNLEIFEREGLVQQSAEKGAYLLERLKELLRHPTVGDVRGLGLMCGIELVKSKATKEKWPRNSAFIKALERRMNEKGLLTRVWEIVHVAPPLVVTYEELDRIVTIIDEALTETENEFASEIAE
# modifications: Thermomicrobium roseum (strain ATCC 27502 / DSM 5159 / P-2)
# notes: Thermomicrobium roseum aminotransferase
# B3: SEQ ID NO: 73: Thalassospira xiamenensis M-5 thioesterase (protein)
# chain: MTIQWDEIAKPALPANCGWRGTYRVRYSEIGDNGLAMLPALADYMQDAAGWGARILKLAYDDTVDKGMAWVLARMVIHVRRYPGNGEDIIVETWPSGVARRVATRDFRLIDSSGDVIAVAQSFWVMFDLLERRAASWPDWIEERLPKPPGPKLIEPPFRPPFTTDPLPEIDSIKARPSDLDLYGHVNNVRLMQWVLGATGADSKPDFHPESIDIQFRTECRVQERVTVRQKDGFAAITRDGDGVDLVRAHVVPKNRTALA
# modifications: Thalassospira xiamenensis M-5 = DSM 17429
# notes: Thalassospira xiamenensis M-5 thioesterase
# B4: SEQ ID NO: 190: Bacteroides finegoldii CL09T03C10 thioesterase (protein)
# chain: MSESNKIGTYKFVAEPFHVDFNGRLTMGVLGNHLLNCAGFHASDRGFGIASLNEDNYTWVLSRLAIELDEMPYQYEDFSVQTWVENVYRLFTDRNFAIMNKEGKKIGYARSVWAMISLNTRKPADLLALHGGSIVDYICDEPCPIEKPSRIKVTNTQPLATLTAKYSDIDINGHVNSIRYIEHILDLFPIDLYKTKRIRRFEMAYVAESYFGDELTFFCDEANENEFHVEVKKNGSEVVCRSKVIFE
# modifications: Bacteroides finegoldii CL09T03C10
# notes: Bacteroides finegoldii CL09T03C10 thioesterase
# B5: SEQ ID NO: 86: Marine sediment metagenome thioesterase (protein)
# chain: MTVKALTTRLPAPGPQVRYFSALRSAVLCVFLLAAGFCASTSAESDDGVLLVFGDSLSAAYRMDERDGWVALLQQQLREESTALQVVNGSVSGETTAGGLARLPAMLDAHQPDIVMLELGGNDGLRGLPVTSIRQNLERMIQMSQQAGARVILAGIQIPPNYGPRYTAPFYAQYQELADEYGLVLIPFLLEGIADNPALMQDDGIHPTAAAQPMIVDTVWPVLQGVLTATDRP
# modifications: Description of Unknown: Marine sediment metagenome
# notes: Marine sediment metagenome thioesterase
# B6: SEQ ID NO: 195: Halobacteriovorax marinus thioesterase (protein, listed as Halobacteriovorax marinus)
# chain: MKSPVFKKKYQVSISNVNINKRLGLFGLLGYLQDIATLHAEIAGFGLDEMISSNSFWVLVRQEIRMNKFPKWNDEIEIQTWSRTPQGMYAFREFEFFLNDEKVGSCSTAWMILSGDTRRIKKPDFPIEKINPRLDSLLDYCAERIKVLDNFELVNEIKVRISDLDLNMHVNNTKYTQWVLDSIPIELHKSAKLRNYQINFLKEAHLGDEIDIYRASSAKDESAHDTQFKGIRRSDQSTIFYVNIIADT
# modifications: Halobacteriovorax marinus (strain ATCC BAA-682 / DSM 15412 / SJ)
# notes: Halobacteriovorax marinus thioesterase
# B7: SEQ ID NO: 82: Vibrio shilonii AK1 thioesterase (protein)
# chain: MIRQLSYFVLIVISLASFHAKAATLLILGDSLSAGYNMRAEQSWPTMLSDELSSGDEPMKVINGSVSGDTTSNGLAKLPGLLKQHSPDYVLIELGANDGLRGFQPSIIKNNLASLIEMSQQAGSKVLLMQIRIPPNYGKRYASMFEGIYPALAQESGVPLLPFFLEQVIIKPEWMMEDGLHPKPEAQPFIAQFVAESMQPHL
# modifications: Vibrio shilonii AK1
# notes: Vibrio shilonii AK1 thioesterase
# B8: SEQ ID NO: 191: Pseudoalteromonas sp. SW0106-04 thioesterase (protein)
# chain: MSASILRVFIVLLLVTKPLFAWADNQILVLGDSLSAAYGLKQHQGWVQLLQDTYEQQNTPTTLINASISGETTGGALRRLDAILKEHTPTHVLIELGGNDGLRGFPVTKMKANLHALIDKSREAGAEVALMQIRIPPNYGRRYTELFEQSFVDVAKEKQVTLMPFFVEQVATNGELMQNDNIHPNAEAQPILRDIMKTQISNWLTK
# modifications: Pseudoalteromonas sp. SW0106-04
# notes: Pseudoalteromonas sp; SW0106-04 thioesterase
# B9: SEQ ID NO: 192: Vibrio mytili thioesterase (protein, listed as Vibrio mytili)
# chain: MIRLLSLFLFFSLSTLAHANEKLLVLGDSLSAGYQMPIEKSWPSLLSNALLEHDQDVTVINGSISGDTTGNGLARLPQLLDQHTPDFVILELGANDGLRGFPPKLITANLSKMITMIKNSGAKVFMMQIRVPPNYGKRYSDMFYDIYPKLAEHQQVTLLPFFLEHVVTKPEWMMDDGLHPKPEAQPWIAEFVAQELIKHL
# B10: SEQ ID NO: 188: Vibrio mimicus thioesterase (protein, listed as Vibrio mimicus)
# chain: MIRLLSLVLFFCLSAASQASEKLLVLGDSLSAGYQMPIEKSWPSLLPDALLEHGQDVTVINGSISGDTTGNGLARLPQLLDQHTPDLVLIELGANDGLRGFPPKVITSNLSKMISLIKDSGANVVMMQIRVPPNYGKRYSDMFYDIYPKLAEHQQVQLMPFFLEHVITKPEWMMDDGLHPKPEAQPWIAEFVAQELVKHL
# B11: SEQ ID NO: 85: Ferrimonas balearica thioesterase (protein)
# chain: MVRRSLLILMLCLYQPGAWADQPSILILGDSLSASYGMSEAEGWVKKLQQNLPDAQIINASVSGETSGGGLRRLPGLLQQHQPDWVFVELGGNDGLRGFQPTITENNIEQLITLSKASGAQVLLSEVMVPPNYGRRYAERFQQIYHGLAKEHEVELVPFFMTEIATDPNLMQADGIHPNREAQGRIAAFLLPWFEQAIAE
# modifications: Ferrimonas balearica (strain DSM 9799 / CCM 4581 / PAT)
# notes: Ferrimonas balearica thioesterase
# B12: SEQ ID NO: 193: Pseudomonas fluorescens thioesterase (protein, listed as Pseudomonas fluorescens)
# chain: MRVWFLSAGLALMCMAQNAAAGTVLIVGDSISAGFGLDTRLGWVSLLEQRLEQEGFDDKVVNASISGDTSAGGQARLPALLAEHKPDLVILELGGNDGLRGMPPTQLQQNLAAMIDSSRQSGAKVLLLGMQLPPNYGKRYTDAFAEVYGKLADDKKIPLVPFFLDGVGGHPDLMQADGLHPAAGAQGKLLENVWPTLKPLL
# B13: SEQ ID NO: 194: Pseudomonas stutzeri (strain A1501) thioesterase (protein)
# chain: MRRWLKCGALALLCWTQGALAGTVLVVGDSISAAFGLETSQGWVHLLQERLVEGDESWRVVNASISGDTTAGGLARLDPLLEEHTPEVVILELGGNDGLRGQSPVQLKQNLADMIDRSREAGAEVLLLGMRMPPNLGQRYTRAFADAFDSLAQEKSVAYVPFLLEGVGGVAGMMQADGIHPTAEAQSQLLETVWPALEPLL
# modifications: Pseudomonas stutzeri (strain A1501)
# notes: Pseudomonas stutzeri (strain A1501) thioesterase
# B14: SEQ ID NO: 189: Sedimenticola thiotaurini thioesterase (protein, listed as Sedimenticola thiotaurini)
# chain: MKKLFLLLIFAMSNVPAAEPVILVLGDSLSAAYGIERSRGWVSLLQSRLQQAGYPHRVVNASISGDTTAGGLARLPRALEQFQPDILIIELGGNDGLRGLGNRQTRDHLDQMITLARASHSRPLLLGMMLPPNFGKAFTEKFLQIYRDLAEQRNVPLVPFFLAGVADRPEWMQSDGIHPTAEGQPLMLEHVWEQLQPMLEETSVHSDKSLK
# Tested on: not listed separately
# Experiment: In vivo aminotransferase activity screening, 7-aminoheptanoate by LC-MS
# Assay type: cell-based, Escherichia coli
# Settings: in vivo conversion of 7-oxoheptanoate to 7-aminoheptanoate, 120 aminotransferases screened
# Outline: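 Aminotransferase library expressed in E. coli T7 Express lysY/Iq co-expressing sfp, CAR_Srot and BioC, grown overnight at 37° C in rich media with 0.4 mM IPTG and 1 g/L monomethyl heptanedioate, heptanedioate or no acid. Culture supernatants analysed by LC-MS for 7-aminoheptanoate or its monomethyl ester.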
row,Molecule,7-aminoheptanoate yield compared to the positive control (F2XBU9)
1,B1,higher 7-aminoheptanoate yields
2,B2,higher 7-aminoheptanoate yields

# Tested on: heptanedioyl-ACP methyl ester
# Experiment: not given
# Assay type: cell-based, Escherichia coli
# Settings: 146 thioesterases screened
row,Molecule,impact on monomethyl heptanedioate production
1,B3,promising

# Same assay, conditions: top 150 hits screened in vivo
row,Molecule,activity toward heptanedioyl-ACP methyl ester in vivo
1,B3,showed activity toward heptanedioyl-ACP methyl ester

# Tested on: heptanedioyl-ACP
# Experiment: not given
# Assay type: cell-based, Escherichia coli
# Settings: top 150 hits screened in vivo
row,Molecule,activity toward heptanedioyl-ACP in vivo
1,B4,displayed considerable activity toward heptanedioyl-ACP
2,B5,displayed considerable activity toward heptanedioyl-ACP
3,B6,displayed considerable activity toward heptanedioyl-ACP
4,B7,displayed considerable activity toward heptanedioyl-ACP
5,B8,displayed considerable activity toward heptanedioyl-ACP
6,B9,displayed considerable activity toward heptanedioyl-ACP
7,B10,displayed considerable activity toward heptanedioyl-ACP
8,B11,displayed considerable activity toward heptanedioyl-ACP
9,B12,displayed considerable activity toward heptanedioyl-ACP
10,B3,displayed considerable activity toward heptanedioyl-ACP
11,B13,displayed considerable activity toward heptanedioyl-ACP
12,B14,displayed considerable activity toward heptanedioyl-ACP
